The target in assay [1] is T1, Human LILRB2 on stably transduced HEK293T cells (human, UniProt Q8N423 22-597).
T1 construct: Lentiviral transduction (G&P Biosciences LTV2992); also called HEK293T-LILRB2; LILRB2-expressing HEK293T cells
The experiment in a line: flow cytometry, HEK293T cells stably expressing human LILRB2. On the procedure: To confirm binding of LILRB2 antibodies, flow cytometry binding assays were performed using HEK293T cells stably expressing human LILRB2 (Example 3). […] The B2A-IgG1 and B2A-IgG4 chimeras bound the LILRB2-expressing HEK293T cells, with equivalent EC₅₀ values of 0.21 nM and 0.30 nM respectively.
(§1) Select humanized variant antibodies were purified and tested for their ability to bind human LILRB2 by ELISA, using the method described in Example 2, and binding to HEK293T cells expressing human LILRB2, using the method described in Example 4. Representative data are shown for IgG4 variants in Table 6.

For assay [2], the target named is T2, LILRB2-Fc protein (human, UniProt Q8N423 22-460, limits assumed).
T2 construct: also called human LILRB2-Fc; not shown: Fc part
In words: blocking ELISA, LILRB2-Fc binding to coated monomer HLA-G; Exp II. On the procedure:
(§2) Tumor-associated HLA-G is an HLA Class I ligand for LILRB2. Binding of HLA-G to LILRB2 induces an immune suppressive signal in LILRB2 expressing myeloid cells. To determine if the anti-LILRB2 antibodies block the HLA-G-LILRB2 interaction and prevent the induction of an inhibitory signal, blocking ELISA assays in a dose titration were performed. 384-well plates were coated with monomer HLA-G (Fred Hutchinson Cancer Research Center, No. bHLA-G) at a concentration of 5 μg/mL, diluted in PBS, then plates were incubated at RT for 1 hour. Plates were rinsed with Wash Buffer three times, then blocked with Blocking Buffer A for 30 minutes at RT. During blocking incubation step, LILRB2-Fc protein and antibody titrations were prepared in Blocking Buffer A. LILRB2-Fc protein was then incubated with antibody titrations for 30 minutes at RT to allow for binding prior to addition onto plate. Plates were rinsed three times with Wash Buffer, then 25 μL of protein/antibody mixture was added per well and incubated for 1 hour at RT. Following antibody incubation, plates were washed three times with Wash Buffer. Anti-human IgG Fc-HRP secondary antibody was diluted and added at 25 μL/well. Plates were incubated in the dark for 1 hour at RT. Following secondary antibody incubation, plates were washed four times with Wash Buffer. 25 μL/well ultra-neat TMB was added per well for development and incubated for 5 minutes at RT. Reaction was stopped using 0.3 M HCl (25 μL/well). Absorbance was read at 450 nm using the Envision. The IC₅₀ for HLA-G blocking by clone B2A-IgG4 was 0.066 μg/mL.
(§3) Select humanized IgG4 variant antibodies were tested for their ability to block binding of human LILRB2-Fc to monomer HLA-G by ELISA, using the method described in Example 7.
(In general: In an ELISA, binding on a coated surface is turned into a signal by an enzyme label.)

For assay [3], the target named is T3, Recombinant human LILRB2 protein (ELISA antigen) (human, UniProt Q8N423 22-460).
T3 construct: also called LILRB2-His; recombinant LILRB2
The experiment in a line: ELISA, plate-coated recombinant human LILRB2. As for the experimental part: (§4) To confirm binding to human and cynomolgus LILRB2, antibodies in supernatants were evaluated for binding by enzyme-linked immunosorbent assay (ELISA). Recombinant LILRB2 proteins (human: SEQ ID NO: 48; cynomolgus) were diluted in PBS to 2 μg/mL and added to 384-well high-binding ELISA plates (Greiner Bio-One Microlon™) at 25 μL/well and incubated at 4° C. overnight. The plates were washed three times with Wash Buffer (0.05% Tween® 20 in PBS), using a microplate washer and then blocked with 90 μL/well of ELISA Blocking Buffer A (1% BSA in PBS) for 1 hour at room temperature (RT). After blocking, 25 μL/well of LILRB2 antibodies or isotype control were added to the plates and incubated for 1 hour at RT. After primary antibody binding, plates were washed three times with Wash Buffer using a microplate washer. Secondary detection antibody (HRP-goat anti-rabbit Fab fragment) was diluted to 1:3000 in assay diluent (1% BSA in PBS) and 25 μL/well was added to plates and incubated at RT protected from light for 1 hour. Following incubation, plates were washed four times with Wash Buffer, using a microplate washer. After removal of the final wash, 25 μL/well of 1-Step™ Ultra TMB-ELISA Substrate Solution (Thermo Fisher, No. 34028) was added and plates were incubated for 5-10 min at RT, protected from light. After development, the reaction was stopped by addition of 25 μL/well of 0.3 M HCl, and plates were read using an EnVision (Perkin Elmer) microplate reader at 450 nm. EC₅₀ values were calculated based on log concentration of the primary antibodies at optical density at 450 nm.
as §1

For assay [4], the target named is T2, LILRB2-Fc protein. The experiment in a line: blocking ELISA, LILRB2-Fc binding to coated monomer HLA-G; Exp I. On the procedure:
as §2, §3

The target of assay [5] is T3, Recombinant human LILRB2 protein (ELISA …). In words: ELISA, immobilized LILRB2-His; conditioned media of transient transfections. On the procedure: as §4
Twenty-five IgG4 variants were expressed in mammalian cell culture as a combinatorial library of the five light and five heavy chains. In addition, B2A-IgG4 was included as a transfection control. The conditioned media from these transient transfections were assayed for human IgG concentration. A plate-based ELISA (see Example 2) was performed in which LILRB2-His was immobilized, and binding of humanized mAb variants was detected via an anti-human IgG4 HRP-labeled secondary antibody. The parental rabbit/human chimera clone transfection served as the benchmark EC₅₀ positive control.

T3 sequence (Q8N423 other isoform, or with tags, fused parts or gaps limits assumed): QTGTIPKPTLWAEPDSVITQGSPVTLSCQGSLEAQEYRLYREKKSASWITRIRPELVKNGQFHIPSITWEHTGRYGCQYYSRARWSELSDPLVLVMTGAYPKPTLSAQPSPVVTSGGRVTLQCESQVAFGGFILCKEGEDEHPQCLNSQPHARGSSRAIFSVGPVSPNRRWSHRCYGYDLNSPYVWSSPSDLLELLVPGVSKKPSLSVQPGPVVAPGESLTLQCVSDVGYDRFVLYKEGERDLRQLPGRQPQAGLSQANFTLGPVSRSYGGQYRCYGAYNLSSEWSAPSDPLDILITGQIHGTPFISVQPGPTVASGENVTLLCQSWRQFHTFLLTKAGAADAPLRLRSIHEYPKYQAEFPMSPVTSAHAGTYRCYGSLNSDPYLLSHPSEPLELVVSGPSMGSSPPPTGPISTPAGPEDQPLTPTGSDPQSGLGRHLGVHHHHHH
T1 sequence (Q8N423 other isoform, or with tags, fused parts or gaps limits assumed): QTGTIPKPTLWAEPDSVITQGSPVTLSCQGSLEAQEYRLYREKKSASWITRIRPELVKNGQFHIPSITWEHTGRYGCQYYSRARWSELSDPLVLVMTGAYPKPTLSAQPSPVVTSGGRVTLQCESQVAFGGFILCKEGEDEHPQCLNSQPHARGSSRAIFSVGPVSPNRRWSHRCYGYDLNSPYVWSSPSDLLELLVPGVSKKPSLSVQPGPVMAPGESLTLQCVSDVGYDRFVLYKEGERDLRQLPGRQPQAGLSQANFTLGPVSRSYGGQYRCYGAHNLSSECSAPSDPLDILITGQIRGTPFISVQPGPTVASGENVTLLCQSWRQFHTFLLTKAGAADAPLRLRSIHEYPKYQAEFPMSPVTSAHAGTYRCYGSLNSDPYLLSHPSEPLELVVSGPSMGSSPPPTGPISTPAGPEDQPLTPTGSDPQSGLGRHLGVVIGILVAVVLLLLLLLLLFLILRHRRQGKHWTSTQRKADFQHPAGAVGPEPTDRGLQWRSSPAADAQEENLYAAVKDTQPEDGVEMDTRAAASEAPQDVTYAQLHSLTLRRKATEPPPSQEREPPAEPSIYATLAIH
T2 sequence (Q8N423 22-460 limits assumed): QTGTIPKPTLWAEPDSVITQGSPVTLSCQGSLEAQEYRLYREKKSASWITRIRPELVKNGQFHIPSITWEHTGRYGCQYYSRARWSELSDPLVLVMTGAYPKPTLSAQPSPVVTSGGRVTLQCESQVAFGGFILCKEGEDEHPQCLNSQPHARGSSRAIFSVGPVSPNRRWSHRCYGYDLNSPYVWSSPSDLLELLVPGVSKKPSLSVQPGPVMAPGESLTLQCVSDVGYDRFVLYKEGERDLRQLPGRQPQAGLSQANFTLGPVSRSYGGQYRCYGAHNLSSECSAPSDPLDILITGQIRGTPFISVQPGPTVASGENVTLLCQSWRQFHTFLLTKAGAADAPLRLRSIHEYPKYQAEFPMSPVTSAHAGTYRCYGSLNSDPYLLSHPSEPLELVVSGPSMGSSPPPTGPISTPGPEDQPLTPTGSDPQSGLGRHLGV

B1: B2H4-54 (antibody, V domains shown)
VH: EVQLLESGGGLVQPGTSLTLSCAASGFSLSTYAMSWVRQAPGKGLEWIGWIYNDGSTYYAAWAKGRFTISKDTSKTTLYLQITSLRAEDTATYFCAREGDYIGYFNIWGQGTLVTVSS
VL: DIQMTQSPSSVSASVGDRVTITCQASQSIGSNLAWYQQKPGKAPKLLIYAAATLASGVPLRFSGSGSGTDFTLTISNLQPEDSATYYCQSYVSGSSDVAFGGGTKVEIK
notes: Humanized variant, human IgG4 / kappa
A word on the EC50: it is the concentration at which the effect is half-maximal. One may read the IC50 as the concentration needed to halve the response being measured. Lower therefore signals greater potency. As to B1, the “BMAX [gMFI]” value in assay [1] was determined as 10400 gMFI. Further, the concentration giving a half-maximal response (EC50) came to 0.17 ng/mL in assay [1], 2 ng/mL in assay [3] and 2.25 ng/mL in assay [5]. Further, the IC50 was 4090 ng/mL with LILRB2-Fc protein [2] and 4040 ng/mL in the assay with LILRB2-Fc protein [4].

B2: B2H4-55 (antibody, V domains shown)
VH: EVQLLESGGGLVQPGTSLTLSCAASGFSLSTYAMSWVRQAPGKGLEWIGWIYNDGSTYYAAWAKGRFTISKDTSKTTLYLQITSLRAEDTATYFCAREGDYIGYFNIWGQGTLVTVSS
VL: DVVMTQTPSSVSAALGGTVTIKCQASQSIGSNLAWYQLKPGQRPKLLIYAAATLASGGSSRFKGSGSGTDFTLTISSLEPADAATYYCQSYVSGSSDVAFGGGTEVVVK
notes: as for B1
Consider B2, for which the “BMAX [gMFI]” value in assay [1] turned out to be 10800 gMFI. In addition, the EC50 came out at 0.33 ng/mL in assay [1] and 2.82 ng/mL in assay [3]. Besides, the results for the IC50 with LILRB2-Fc protein [2] and in the assay with LILRB2-Fc protein [4] were 7170 ng/mL and 6890 ng/mL, respectively.

B3: B2H4-52 (antibody, V domains shown)
VH: EVQLLESGGGLVQPGTSLTLSCAASGFSLSTYAMSWVRQAPGKGLEWIGWIYNDGSTYYAAWAKGRFTISKDTSKTTLYLQITSLRAEDTATYFCAREGDYIGYFNIWGQGTLVTVSS
VL: DVVMTQSPSSVSASLGDRVTITCQASQSIGSNLAWYQQKPGQAPKLLIYAAATLASGVPSRFKGSGSGTDFTLTITSLQPADFATYYCQSYVSGSSDVAFGGGTKVEIK
notes: as for B1
Regarding B3, the concentration for a half-maximal effect (EC50) in assay [5] came out at 5.37 ng/mL.

B4: B2H4-43 (antibody, V domains shown)
VH: EVQLLESGGRLVQPGTSLRLSCAVSGFSLSTYAMSWVRQAPGKGLEWIGWIYNDGSTYYAAWAKGRFTISKDTSKTTLYLQMNSLTVEDTATYFCAREGDYIGYFNIWGQGTLVTVSS
VL: DIEMTQSPSSVSASVGDRVTLTCQASQSIGSNLAWYQQKPGQAPKLLIYAAATLASGVPSRFKGSGSGTDFTLTISSLQPEDFATYYCQSYVSGSSDVAFGGGTEVVVK
notes: as for B1
As to B4, the EC50 in assay [5] worked out at 4.96 ng/mL.

B5: B2H4-24 (antibody, V domains shown)
VH: EVQLVESGGDLATPGGSLRLSCAVSGFSLSTYAMSWVRQAPGKGLEWVGWIYNDGSTYYAAWAKGRFTISKDTSKTTVYLQMTSLRAEDTALYFCAREGDYIGYFNIWGQGTLVTVSS
VL: DIQMTQSPSSVSASVGDRVTITCQASQSIGSNLAWYQQKPGKAPKLLIYAAATLASGVPLRFSGSGSGTDFTLTISNLQPEDSATYYCQSYVSGSSDVAFGGGTKVEIK
notes: as for B1
With B5, in assay [1], the “BMAX [gMFI]” value is 10500 gMFI. In addition, the half-maximal effective concentration (EC50) in assay [1] was found to be 0.35 ng/mL; in assay [3] it was 2.81 ng/mL; in assay [5], 3.23 ng/mL. The figures for the IC50 with LILRB2-Fc protein [2] and in the assay with LILRB2-Fc protein [4] were 7500 ng/mL and 7010 ng/mL, respectively.

B6: B2H4-41 (antibody, V domains shown)
VH: EVQLLESGGRLVQPGTSLRLSCAVSGFSLSTYAMSWVRQAPGKGLEWIGWIYNDGSTYYAAWAKGRFTISKDTSKTTLYLQMNSLTVEDTATYFCAREGDYIGYFNIWGQGTLVTVSS
VL: DIQMTQSPSSLSASVGDRVTITCQASQSIGSNLAWYQLKPGQRPKLLIYAAATLASGVPSRFKGSGSGTDFTLTISSLQSEDAATYYCQSYVSGSSDVAFGGGTEVVVK
notes: as for B1
Regarding B6, the “BMAX [gMFI]” value in assay [1] amounted to 10100 gMFI. The EC50 was determined as 0.28 ng/mL in assay [1], 3.05 ng/mL in assay [3] and 3.76 ng/mL in assay [5]. Further, the IC50 amounted to 6760 ng/mL with LILRB2-Fc protein [2] and 5780 ng/mL with LILRB2-Fc protein [4].

B7: B2H4-11 (antibody, V domains shown)
VH: QVQLEESGGRVVQPGRSLRLSCAASGFSLSTYAMSWVRQAPGKGLEWIGWIYNDGSTYYAAWAKGRFTISKDTSKTTVFLQMNSLKPDDTATYFCAREGDYIGYFNIWGQGTLVTVSS
VL: DIQMTQSPSSLSASVGDRVTITCQASQSIGSNLAWYQLKPGQRPKLLIYAAATLASGVPSRFKGSGSGTDFTLTISSLQSEDAATYYCQSYVSGSSDVAFGGGTEVVVK
notes: as for B1
In the case of B7, in assay [1], the “BMAX [gMFI]” value stood at 9840 gMFI. Moreover, the EC50 is 0.32 ng/mL in assay [1], 3.98 ng/mL in assay [3] and 4.2 ng/mL in assay [5]. Moreover, the half-inhibitory concentration (IC50) is 7990 ng/mL with LILRB2-Fc protein [2] and 7310 ng/mL in the assay with LILRB2-Fc protein [4].

B8: B2H4-25 (antibody, V domains shown)
VH: EVQLVESGGDLATPGGSLRLSCAVSGFSLSTYAMSWVRQAPGKGLEWVGWIYNDGSTYYAAWAKGRFTISKDTSKTTVYLQMTSLRAEDTALYFCAREGDYIGYFNIWGQGTLVTVSS
VL: DVVMTQTPSSVSAALGGTVTIKCQASQSIGSNLAWYQLKPGQRPKLLIYAAATLASGGSSRFKGSGSGTDFTLTISSLEPADAATYYCQSYVSGSSDVAFGGGTEVVVK
notes: as for B1
As for B8, the “BMAX [gMFI]” value in assay [1] turned out to be 10200 gMFI. For the same molecule, the EC50 was determined as 0.35 ng/mL in assay [1], 2.88 ng/mL in assay [3] and 4.56 ng/mL in assay [5]. Also, the IC50 with LILRB2-Fc protein [2] is 8290 ng/mL; in the assay with LILRB2-Fc protein [4] it was 7640 ng/mL.

B9: B2H4-44 (antibody, V domains shown)
VH: EVQLLESGGRLVQPGTSLRLSCAVSGFSLSTYAMSWVRQAPGKGLEWIGWIYNDGSTYYAAWAKGRFTISKDTSKTTLYLQMNSLTVEDTATYFCAREGDYIGYFNIWGQGTLVTVSS
VL: DIQMTQSPSSVSASVGDRVTITCQASQSIGSNLAWYQQKPGKAPKLLIYAAATLASGVPLRFSGSGSGTDFTLTISNLQPEDSATYYCQSYVSGSSDVAFGGGTKVEIK
notes: as for B1
With B9, the “BMAX [gMFI]” value in assay [1] came to 10900 gMFI. Moreover, the concentration giving a half-maximal response (EC50) in assay [1] was 0.31 ng/mL; in assay [3], 2.84 ng/mL; in assay [5] it was 4.6 ng/mL. Also, the values for the half-maximal inhibitory concentration (IC50) with LILRB2-Fc protein [2] and with LILRB2-Fc protein [4] were 7290 ng/mL and 7040 ng/mL, respectively.

B10: B2H4-45 (antibody, V domains shown)
VH: EVQLLESGGRLVQPGTSLRLSCAVSGFSLSTYAMSWVRQAPGKGLEWIGWIYNDGSTYYAAWAKGRFTISKDTSKTTLYLQMNSLTVEDTATYFCAREGDYIGYFNIWGQGTLVTVSS
VL: DVVMTQTPSSVSAALGGTVTIKCQASQSIGSNLAWYQLKPGQRPKLLIYAAATLASGGSSRFKGSGSGTDFTLTISSLEPADAATYYCQSYVSGSSDVAFGGGTEVVVK
notes: as for B1
Take B10: the “BMAX [gMFI]” value in assay [1] worked out at 10500 gMFI. The results for the EC50 in assay [1], in assay [3] and in assay [5] were 0.31 ng/mL, 2.3 ng/mL and 3.61 ng/mL, respectively. Besides, the IC50 with LILRB2-Fc protein [2] came out at 7120 ng/mL; with LILRB2-Fc protein [4], 6520 ng/mL.
